Measured values reported in paper PMC3335848, “Characterization of Multi-Functional Properties and Conformational Analysis of MutS2 from Thermotoga maritima MSB8” (PLoS ONE, 2012).

Columns and labels:
[1] = molecular target: T1, TmMutS2 (Thermotoga maritima MSB8, UniProt Q9X105 1-757); test: EMSA; no ATP; 0-2 uM protein; strongest binding among the DNAs; EMSA: 25 mM Hepes-NaOH pH 7.5, 200 mM NaCl, 0.5 mM EDTA, 37 C, 1 h; DNA 1 uM, TmMutS2 0-2 uM, +/- 1 mM ATP; conditions: protein: recombinant; tags: His-tag removed with TEV protease (pET-28aTEV); chain copies: 2; label: 5'-32P (EMSA); four-way junction of 4 strands
T1 sequence: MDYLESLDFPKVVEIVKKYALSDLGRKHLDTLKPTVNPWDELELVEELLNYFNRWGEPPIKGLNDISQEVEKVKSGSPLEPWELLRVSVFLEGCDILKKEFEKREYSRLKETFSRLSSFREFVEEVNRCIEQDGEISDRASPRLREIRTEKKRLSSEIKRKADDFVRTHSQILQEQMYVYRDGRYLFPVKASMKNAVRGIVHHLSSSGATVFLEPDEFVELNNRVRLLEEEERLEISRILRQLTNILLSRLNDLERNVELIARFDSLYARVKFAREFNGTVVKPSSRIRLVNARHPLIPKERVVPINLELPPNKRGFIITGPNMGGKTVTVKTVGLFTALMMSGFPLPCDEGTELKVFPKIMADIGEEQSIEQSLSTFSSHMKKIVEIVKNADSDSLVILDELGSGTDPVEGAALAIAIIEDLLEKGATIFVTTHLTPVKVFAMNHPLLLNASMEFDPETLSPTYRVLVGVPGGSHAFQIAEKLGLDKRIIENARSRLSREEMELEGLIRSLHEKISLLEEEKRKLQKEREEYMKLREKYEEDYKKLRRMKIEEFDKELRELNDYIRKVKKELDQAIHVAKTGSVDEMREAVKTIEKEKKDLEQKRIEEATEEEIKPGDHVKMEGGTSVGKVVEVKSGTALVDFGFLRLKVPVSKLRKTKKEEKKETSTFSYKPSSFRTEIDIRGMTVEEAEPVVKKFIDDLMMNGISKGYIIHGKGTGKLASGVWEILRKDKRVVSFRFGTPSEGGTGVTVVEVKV

[2] = molecular target: T1, TmMutS2; test: EMSA; no ATP; stronger than linear and overhang; EMSA: 25 mM Hepes-NaOH pH 7.5, 200 mM NaCl, 0.5 mM EDTA, 37 C, 1 h; DNA 1 uM, TmMutS2 0-2 uM, +/- 1 mM ATP; conditions: protein: recombinant; tags: His-tag removed with TEV protease (pET-28aTEV); chain copies: 2; label: 5'-32P; fork; S19[1-37] paired with 3' part of S16, both other arms unpaired
[3] = molecular target: the molecule itself; test: AUC; sedimentation velocity, 20°C, 40000 rpm, 24 h, absorbance at 280 nm, C(s) method

B1: Four-way junction (FWJ, DNA 3) (structured_DNA)
DNA 1: GACGCTGCCGAATCCTACCAGTGCCTTGCTAGGACATCTTTGCCCACCTGCAGGTCACCC
DNA 2: TGGGTGAACCTGCAGGTGGGCAAAGATGTCCTAGCAATGTAATCGTCAAGCTTTATGCCGTT
DNA 3: ATCGATAGTCGGATCCTCTAGACAGCATGTCCTAGCAAGGCACTGGTAGAATTCGGCAGCGT
DNA 4: CAACGGCATAAAGCTTGACGATTACATTGCTAGGACATGCTGTCTAGAGGATCCGACTATCGA
B1: binds [1].

B2: Flayed (DNA 4, fork) (structured_DNA)
DNA 1: AACGGCATAAAGCTTGACGATTACATTGCTAGGACATGCTGTCTAGAGGATCCGACTATCGA
DNA 2: TGGGTGAACCTGCAGGTGGGCAAAGATGTCCTAGCAATGTAATCGTCAAGCTTTATGCCGTT
B2: binds [2].

B3: Thermotoga maritima MutS2 (enzyme, Thermotoga maritima MSB8, UniProt Q9X105 1-757, looked up)
chain: MDYLESLDFPKVVEIVKKYALSDLGRKHLDTLKPTVNPWDELELVEELLNYFNRWGEPPIKGLNDISQEVEKVKSGSPLEPWELLRVSVFLEGCDILKKEFEKREYSRLKETFSRLSSFREFVEEVNRCIEQDGEISDRASPRLREIRTEKKRLSSEIKRKADDFVRTHSQILQEQMYVYRDGRYLFPVKASMKNAVRGIVHHLSSSGATVFLEPDEFVELNNRVRLLEEEERLEISRILRQLTNILLSRLNDLERNVELIARFDSLYARVKFAREFNGTVVKPSSRIRLVNARHPLIPKERVVPINLELPPNKRGFIITGPNMGGKTVTVKTVGLFTALMMSGFPLPCDEGTELKVFPKIMADIGEEQSIEQSLSTFSSHMKKIVEIVKNADSDSLVILDELGSGTDPVEGAALAIAIIEDLLEKGATIFVTTHLTPVKVFAMNHPLLLNASMEFDPETLSPTYRVLVGVPGGSHAFQIAEKLGLDKRIIENARSRLSREEMELEGLIRSLHEKISLLEEEKRKLQKEREEYMKLREKYEEDYKKLRRMKIEEFDKELRELNDYIRKVKKELDQAIHVAKTGSVDEMREAVKTIEKEKKDLEQKRIEEATEEEIKPGDHVKMEGGTSVGKVVEVKSGTALVDFGFLRLKVPVSKLRKTKKEEKKETSTFSYKPSSFRTEIDIRGMTVEEAEPVVKKFIDDLMMNGISKGYIIHGKGTGKLASGVWEILRKDKRVVSFRFGTPSEGGTGVTVVEVKV
notes: MutS2 of Thermotoga maritima MSB8, gene amplified from genomic DNA; 89 kDa; residue numbers run to 757; Vector pET-28aTEV; also called TmMutS2; apo-TmMutS2; source: E. coli BL21 (DE3), purified (heat step at 65°C, Ni-NTA, TEV cleavage, Heparin Hitrap HP, Superdex 200 HR)
For B3, the “stoichiometry N” value [3] was 2.
